Assay results as given in article PMC7733260, “Long non-coding RNA NEAT1 promotes bone metastasis of prostate cancer through N6-methyladenosine”.

Assays:
[1] = target: T1, CYCLINL1 (cyclin L1) (UniProt Q9UK58 1-526); experiment: EMSA; 10 mM Mg2+, tRNA, RNase T1; EMSA: 10 mM Tris-Cl pH 7.5, 25 mM KCl, 10 mM MgCl2, 1 mM DTT, 100 ng/ml tRNA, 25 C 30 min, then RNase T1 37 C 15 min. Pull-down: lysate in 50 mM Tris-HCl pH 7.5, 150 mM NaCl, 1% NP-40, 0.1% SDS, 4 C 12 h; wash 50 mM Tris pH 7.4, 150 mM NaCl, 0.05% NP-40, 1 mM MgCl2; settings: protein: ivt; tags: Myc; label: 3' biotin
T1 sequence: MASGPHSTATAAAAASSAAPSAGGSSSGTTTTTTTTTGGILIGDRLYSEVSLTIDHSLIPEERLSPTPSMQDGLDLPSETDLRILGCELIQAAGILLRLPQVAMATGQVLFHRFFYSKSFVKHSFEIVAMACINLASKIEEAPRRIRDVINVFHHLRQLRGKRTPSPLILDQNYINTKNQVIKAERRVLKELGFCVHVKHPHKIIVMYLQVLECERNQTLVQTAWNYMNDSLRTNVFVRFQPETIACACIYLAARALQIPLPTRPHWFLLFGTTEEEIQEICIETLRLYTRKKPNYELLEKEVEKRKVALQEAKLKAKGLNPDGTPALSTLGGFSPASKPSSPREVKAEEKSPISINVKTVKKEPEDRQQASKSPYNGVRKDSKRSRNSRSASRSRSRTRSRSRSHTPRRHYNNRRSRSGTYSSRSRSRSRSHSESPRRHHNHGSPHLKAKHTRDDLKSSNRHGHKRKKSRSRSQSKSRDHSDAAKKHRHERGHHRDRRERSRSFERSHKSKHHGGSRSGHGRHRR

[2] = target: CDK19 (UniProt Q9BWU1 1-502); experiment: as above; settings: protein: ivt; tags: Flag; label: 3' biotin
Chain of CDK19 (Q9BWU1 whole entry): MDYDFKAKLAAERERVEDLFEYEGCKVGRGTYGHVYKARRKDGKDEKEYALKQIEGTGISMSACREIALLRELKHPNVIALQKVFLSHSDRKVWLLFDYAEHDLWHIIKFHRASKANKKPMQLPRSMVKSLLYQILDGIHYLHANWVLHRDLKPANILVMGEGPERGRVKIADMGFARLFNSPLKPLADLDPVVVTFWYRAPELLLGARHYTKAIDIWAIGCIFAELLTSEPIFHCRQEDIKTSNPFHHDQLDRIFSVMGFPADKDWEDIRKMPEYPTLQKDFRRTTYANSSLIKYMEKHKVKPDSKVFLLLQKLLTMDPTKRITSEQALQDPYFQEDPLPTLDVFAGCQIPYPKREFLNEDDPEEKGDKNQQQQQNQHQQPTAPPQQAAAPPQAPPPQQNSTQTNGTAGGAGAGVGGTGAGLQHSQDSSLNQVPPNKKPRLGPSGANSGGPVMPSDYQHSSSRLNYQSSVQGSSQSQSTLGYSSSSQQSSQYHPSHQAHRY

B1: Probe m6A in Fig3e (NEAT1-1 site #4) (ssRNA)
RNA: UUAUUUUUAUCGUUGGGAUCUUUCUGUCUUCUGGGUUCCAUUUUUUAAAUGUUUAAAAAUAUGUUGACAUGGUAGUUCAGUUCUUAACCAAUGACUUGGGGAUGA
modifications: m6A at site #4 (A3494); stoichiometry and installation not stated
Question: Does B1 bind [1]?
Answer: binds

Question: Does GCAGCCCCUUUUUUUCCAGACCAAGGGCUGUGA (ssRNA) [Probe WT in Fig3e (NEAT1-1 U-rich)] bind [2]?
Answer: binds
